Test results: patent US20030022355A1

Molecular target: fiber receptor (cellular receptor for wild-type adenoviral fiber protein)
Assay: competition on A549 cells; labelled competitor GV10 UTV; soluble fiber at 0 to about 10 ug/ml

## soluble wild-type fiber protein
  percent of GV10 UTV binding inhibited: 40%
